# Patent US20220396628A1
# Experiments:
# [1] = molecular target: anti-CLL-1 CAR (chimeric antigen receptor presenting the anti-CLL-1 scFv), expressed on primary human T cells; test: flow cytometry histogram; hybridoma clonal supernatant on anti-CLL-1 CAR-transduced primary human T cells, detected with FITC goat anti-rabbit F(ab')2; fraction of events in the CAR+ gate
# [2] = molecular target: control CAR3, expressed on T cells; test: flow cytometry histogram; hybridoma clonal supernatant on control CAR 3-expressing T cells, detected with FITC goat anti-rabbit F(ab')2; fraction of events in the CAR+ gate; parameters: unit not given here
# [3] = molecular target: control CAR 2, expressed on T cells; test: flow cytometry histogram; hybridoma clonal supernatant on control CAR 2-expressing T cells, detected with FITC goat anti-rabbit F(ab')2; fraction of events in the CAR+ gate
Binder,CAR+ [1],CAR+ [2],CAR+ [3]
"KIP-10 Clone 15-2 (antibody, V domains shown) VH: QEQLVESGGGLVKPGASLTLTCKASGFSFSVGYDMCWVRQAPGKGLEWIACIDTDSSSRTWNASWAKGRFTISKPSSTTVTLQMTSLTAADTATYFCARNDDTSGWGSKLWGPGTLVTVSS VL: DVVMTQTPASVSEPVGGTVTIKCQASQTIGSALAWYQQKPGQPPKLLIYTASNLASGVSSRFKGSRSGTEFTLTISDLECADAATYYCQHTFYGTSYVDAFGGGTEVVVK",58,0.011,0.063
"KIP-10 Clone 103-2 (antibody, V domains shown) VH: QSVEESGGRLVTPGTPLTLTCTVSGFSLGSYYMSWVRQAPGKGLEWIGIIYQSGNTDYASWAKGRFTISKTSSTTVDLKMTSLTTEDTATYFCAREGYAGYVGYSYNIWGPGTLVTVSS VL: AYDMTQTPASVSAAVGGTVSINCQASEDIESYLAWYQQRPGQPPKLLIYSASTLASGVSSRFKGSGSGTQFTLTISDLECADAATYYCQQGASSNDVEEPFGGGTEVVVK",55.9,–,0.011
"KIP-10 Clone 147-1 (antibody, V domains shown) VH: QEQLEESGGDLVKPEGSLTLTCTASGFSFSGDYYMCWVRQAPGKGLEWIACIYVGSYIYSFYASWAKGRFTISRTSSTTVTLQMTSLTAADTATYFCARDPFATDSDVVSLWGPGTLVTVSS VL: AVVLTQTPASVSAAVGGTVTINCQASQSISTVLAWYQQKPGQRPKLLIYWASTLASGVPSRFKGSGSGTQFTLTISGVECDDAATYYCAGYKSYSNDDGAFGGGTEVVVK",57.7,0.011,0.053
"KIP-10 Clone 148-4 (antibody, V domains shown) VH: QEQLEESGGDLVKPEGSLTLTCTASGFSFSGSFDVCWVRQAPGKGLEWIACIVVDSSDRTWYASWAKGRFTISKPSSTTVTLQMTSLTAADTATYFCARNDDTSGWGFNLWGPGTLVTVSS VL: DVTMTQTPASVSEPVGGTVTIKCQASQSIGSALAWYQQKPGQPPKLLIWTASNLASGVSSRFKGSRSGTDFTLTISDLECADAATYYCQCTYYGSSYINAFGGGTEVVVK",55.8,0.011,0.021
"KIP-10 Clone 160-1 (antibody, V domains shown) VH: QSLEESGGDLVKPGASLTLTCTASGFSFSSNYFVCWVRQAPGKGLEWVGCINPGSGRTYSASWAKGRFTISKSSSTTVTLQMTSLTAADTATYFCARDRPGSDDYYMRDLWGPGTLVTVSS VL: DPVMTQTPASVSEPVGGTVTINCQASESIGSSLAWYQQKPGQPPKLLIYAASTLASGVSSRFKGSGSGTQFTLTISDLECADAATYYCQCSYYLNTYVGNPFGGGTEVVVK",55.6,0.011,0.021
"KIP-10 Clone 63-2 (antibody, V domains shown) VH: QQQLEESGGGLVKPGGTLTLTCKASGFSFSSDYDMCWVRQAPGKGLEWIACIYAGSSDNTYYATWAKGRFTISKTSSTTVTLQMTSLTAADTATYFCARDTADINFYFKLWGPGTLVTVSS VL: DIVMTQTPASVSAAVGGTVTIKCQASESVSRWLAWYQQKPGQPPNLLIYSASTLASGVPSRFRGSGSGTEYTLTISDLECADAATYYCQGGYYSGGETYHNSFGGGTEVVVK",57.8,–,0.021
"KIP-10 Clone 180-2 (antibody, V domains shown) VH: QSLEESGGGLVQPGGSLKLSCKASGFIFSDNYYMCWVRQAPGKGLELIACIYGGHIDTTYYASWVSGRFTSSKTSSTTVTLQLTSLTAADTATYFCARRTIYDDNDDYSYALHLWGPGTLVTVSS VL: ALVMTQTPSSVSEPVGGTVTINCQASQSISNLLAWYQQKPGQPPKLLIYGASNLESGVPSRFKGSGSGTEYTLTISGVECADAATYYCQQGDSSSNLDNTFGGGTEVVVK",57.7,0.011,–
